The record followed here is PMC8777168 (2022).

The labels stand for the following.
B1: STUB1, expressed from a plasmid in 293T cells [not stated] / MIF in 293T cells [not stated] (parent complex)
chain 1: MKGKEEKEGGARLGAGGGSPEKSPSAQELKEQGNRLFVGRKYPEAAACYGRAITRNPLVAVYYTNRALCYLKMQQHEQALADCRRALELDGQSVKAHFFLGQCQLEMESYDEAIANLQRAYSLAKEQRLNFGDDIPSALRIAKKKRWNSIEERRIHQESELHSYLSRLIAAERERELEECQRNHEGDEDDSHVRAQQACIEAKHDKYMADMDELFSQVDEKRKKRDIPDYLCGKISFELMREPCITPSGITYDRKDIEEHLQRVGHFDPVTRSPLTQEQLIPNLAMKEVIDAFISENGWVEDY
chain 2: PMFIVNTNVPRASVPDGFLSELTQQLAQATGKPPQYIAVHVVPDQLMAFGGSSEPCALCSLHSIGKIGGAQNRSYSKLLCGLLAERLRISPDRVYINYYDMNAANVGWNNSTFA

Variants of B1 are the subject of the assay. The experiment in a line: co-immunoprecipitation (IP: Myc, IB: MIF) and western blot, band quantification; 293T cells transfected for 24 h with STUB1 mutation plasmids; triplicate experiments, mean ± SD; read off a plot.
Take chain 1 R66A: the response is approximately 0.25 MIF/Input ratio.
The figure for chain 1 W147A is approximately 1 MIF/Input ratio; for chain 1 S149A it is approximately 1 MIF/Input ratio.
The figure for chain 1 K143A is approximately 0.22 MIF/Input ratio.
